Results from PMC5575297, “Interaction of lipopolysaccharides at intermolecular sites of the periplasmic Lpt transport assembly” (Scientific Reports, 2017).

T1: LptC construct lacking the 23 residues long N-terminal transmembrane domain (E. coli), P0ADV9
T1 chain: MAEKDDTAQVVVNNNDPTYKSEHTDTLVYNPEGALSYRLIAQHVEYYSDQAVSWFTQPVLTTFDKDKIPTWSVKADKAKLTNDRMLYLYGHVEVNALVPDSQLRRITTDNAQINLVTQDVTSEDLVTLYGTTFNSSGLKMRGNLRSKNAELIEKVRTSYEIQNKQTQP

B1: LptC construct lacking the 23 residues long N-terminal transmembrane domain (domain or fragment, E. coli, UniProt P0ADV9 24-191, looked up)
chain: MAEKDDTAQVVVNNNDPTYKSEHTDTLVYNPEGALSYRLIAQHVEYYSDQAVSWFTQPVLTTFDKDKIPTWSVKADKAKLTNDRMLYLYGHVEVNALVPDSQLRRITTDNAQINLVTQDVTSEDLVTLYGTTFNSSGLKMRGNLRSKNAELIEKVRTSYEIQNKQTQP
notes: LptC, E. coli, lacking the first 23 residues (transmembrane domain); For NMR the protein was isotope-labelled (2H, 13C, 15N, or AILV methyl-labelled) or unlabelled; also called LptC dimer; source: E. coli M15 [prep4], pQESH plasmid, purified (HiTrap, S75 SEC)
B2: LptAm (monomeric E. coli LptA mutant, LptA Δ160-185) (domain or fragment, UniProt P0ADV1 28-159, looked up)
chain: VTGDTDQPIHIESDQQSLDMQGNVVTFTGNVIVTQGTIKINADKVVVTRPGGEQGKEVIDGYGKPATFYQMQDNGKPVEGHASQMHYELAKDFVVLTGNAYLQQVDSNIKGDKITYLVKEQKMQAFSDKGKR
notes: LptA, E. coli, residues 28-159; lacks the last C-terminal β-strand (Δ160-185); For NMR the protein was isotope-labelled (2H, 13C, 15N) or unlabelled; the purified protein is 28-159; also called monomeric LptA; C-terminally truncated LptA; source: E. coli BL21(DE3), pET21b, purified (HiTrap, S75 SEC)

Assays:
[1] = biological target: B2; test: NMR titration; isotope-labelled LptC or LptAm with the unlabelled partner (1.2 molar equivalents); 2D BEST-TROSY / methyl spectra; 35 °C, buffer B with 5% D2O; submillimolar concentrations; conditions: both partners purified
[2] = biological target: B2; test: SEC-MALS; 40 µl injected on Superdex S200 (10/300GL) in buffer B (50 mM sodium phosphate, 150 mM NaCl, pH 8) at 25 °C; proteins alone and LptC-LptAm mixtures (also with a two-times molar excess of LptAm); protein conjugate two-component analysis for the complex; conditions: both partners purified
[3] = biological target: T1, LptC construct lacking the 23 residues …; test: SAXS; beamline BM29 (ESRF), 20 °C, NMR buffer with 0.5% w/v sucrose; LptAm 1.6 and 2.4 mg/ml, LptC 1, 2 and 3 mg/ml, LptAm:LptC 1:1 molar ratio at 3.6 and 5.4 mg/ml; extrapolated to zero dilution; conditions: remark: other sources report otherwise
[4] = biological target: T1, LptC construct lacking the 23 residues …; test: SEC-MALS; 40 µl injected on Superdex S200 (10/300GL) in buffer B (50 mM sodium phosphate, 150 mM NaCl, pH 8) at 25 °C; proteins alone and LptC-LptAm mixtures (also with a two-times molar excess of LptAm); protein conjugate two-component analysis for the complex; conditions: remark: other sources report otherwise
[5] = biological target: B1; test: SAXS; beamline BM29 (ESRF), 20 °C, NMR buffer with 0.5% w/v sucrose; LptAm 1.6 and 2.4 mg/ml, LptC 1, 2 and 3 mg/ml, LptAm:LptC 1:1 molar ratio at 3.6 and 5.4 mg/ml; extrapolated to zero dilution; conditions: both partners purified

Row | stoichiometry N [1] | stoichiometry N [2] | stoichiometry N [3] | stoichiometry N [4] | binding result [5] | Binder
1 | ~1 LptC:LptAm molar ratio | 2 LptC:LptAm (2:1) | 2 | 2 | – | B1
2 | – | – | – | – | binds | B2
